Experimental data taken from paper PMC3219723.

Columns and labels:
ASF/SF2 (Homo sapiens) = ASF/SF2 (Homo sapiens) (UniProt Q07955); details: cited from earlier work
[1] = molecular target: Cp183 dimer (HBV core protein, free dimer) (Hepatitis B virus) (UniProt P03147); experiment: SEC; 5.3 µM Cp183 dimer alone or mixed with 11.2 µM SRPKΔ in disassembly buffer, dialysed overnight against reassembly buffer (0.25 M NaCl, 10 mM DTT, 20 mM Tris-HCl pH 7.4); Superose 6; fractions by SDS-PAGE
Chain of UniProt P03147 (P03147 whole entry): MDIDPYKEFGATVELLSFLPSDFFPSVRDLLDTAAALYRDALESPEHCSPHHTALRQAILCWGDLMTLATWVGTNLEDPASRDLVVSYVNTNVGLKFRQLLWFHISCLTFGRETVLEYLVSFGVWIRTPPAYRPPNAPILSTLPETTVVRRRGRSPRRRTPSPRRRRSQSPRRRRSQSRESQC

Chain of UniProt Q07955 (Q07955 2-248): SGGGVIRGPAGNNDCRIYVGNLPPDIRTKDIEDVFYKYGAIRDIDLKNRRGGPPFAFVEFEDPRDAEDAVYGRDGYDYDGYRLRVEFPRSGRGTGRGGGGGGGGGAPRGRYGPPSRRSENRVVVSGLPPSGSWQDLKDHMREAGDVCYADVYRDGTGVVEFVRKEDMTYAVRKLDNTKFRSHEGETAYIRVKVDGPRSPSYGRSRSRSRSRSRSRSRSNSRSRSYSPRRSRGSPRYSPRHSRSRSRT

Substance	Kd (ASF/SF2 (Homo sapiens)) [µM]	stoichiometry N (SRPKΔ per Cp183 dimer) [1]
SRPK1 (from UniProt Q96SB4)	0.05	
SRPK1ΔN1S1 (truncated Serine Arginine protein kinase 1) (from UniProt Q96SB4 1-655) (enzyme)		> 1
